Measurements reported in patent US9688719B2, “Glycogen synthase kinase-3 inhibitors” (Ramot at Tel-Aviv University Ltd., priority 2011, dated 2017).
Substitutions are numbered along the chain they refer to. Numbers in names are those of the source. Square brackets hold non-standard residues; d marks the D form. Ends that are not written are not given here. * marks the point of attachment. Myristoyl = CCCCCCCCCCCCCC(=O)*; pS = N[C@@H](COP(=O)(O)O)C(=O)O

What was measured:
GSK-3β F93A mutant = biological target: T1, GSK-3β F93A mutant (Homo sapiens, UniProt P49841, F93A); assay: In vitro kinase assay, inhibition of the F93A mutant; type: biochemical; settings: FIGS. 2B, 2C
T1 construct: made in house; host or cells: HEK-293 (transient transfection, pCMV4; partial purification on DE-52)
Protocol: (§1) HEK-293 cells were grown in Dulbecco's Modified Eagle's Medium (DMEM), supplemented with 10% fetal calf serum (FCS), 2 mM glutamine, 100 units/ml penicillin, and 100 μg/ml streptomycin. HEK-293 cells were transiently transfected with indicated constructs, using calcium phosphate method as described [Ilouz et al. (2006) supra]. Cells were lysed in ice-cold buffer G (20 mM Tris-HCl, pH 7.5, 10 mM β-glycerophosphate, 10% glycerol, 1 mM EGTA, 1 mM EDTA, 50 mM NaF, 5 mM sodium pyrophosphate, 0.5 mM orthovanadate, 1 mM benzamidine, 10 μg/ml leupeptin, 5 μg/ml aprotinin, 1 μg/ml pepstatin, and 0.5% Triton X100). Cell extracts were centrifuged for 30 minutes at 15,000×g. […]
(§2) The GSK-3β proteins (WT or mutants) were incubated with indicated substrate in a reaction mixture (50 mM Tris-HCl, pH 7.3, 10 mM magnesium acetate, and 0.01% β-mercaptoethanol) together with 100 μM ^32P[γ-ATP] […] Reactions were stopped by spotting on p81 paper (Whatman) washed with phosphoric acid, and counted for radioactivity as previously described [Ilouz et al. (2006) supra]. In assays from cells overexpressing GSK-3 proteins, the activity of the endogenous GSK-3 that was determined in cells transfected with the pCMV4 vector was subtracted from the activity values obtained for WT and mutants. […]

[1] = test system: GSK-3β mutants Q89A, N95A, R92A, K94A, F93Y and TM (91-93); assay: In vitro kinase assay, inhibition of other GSK-3β mutants; type: biochemical, human; settings: data not shown
Protocol: as §1, §2

GSK-3β = GSK-3β (Homo sapiens, UniProt P49841)
Chain of GSK-3β (P49841 1-433 isoform P49841-2): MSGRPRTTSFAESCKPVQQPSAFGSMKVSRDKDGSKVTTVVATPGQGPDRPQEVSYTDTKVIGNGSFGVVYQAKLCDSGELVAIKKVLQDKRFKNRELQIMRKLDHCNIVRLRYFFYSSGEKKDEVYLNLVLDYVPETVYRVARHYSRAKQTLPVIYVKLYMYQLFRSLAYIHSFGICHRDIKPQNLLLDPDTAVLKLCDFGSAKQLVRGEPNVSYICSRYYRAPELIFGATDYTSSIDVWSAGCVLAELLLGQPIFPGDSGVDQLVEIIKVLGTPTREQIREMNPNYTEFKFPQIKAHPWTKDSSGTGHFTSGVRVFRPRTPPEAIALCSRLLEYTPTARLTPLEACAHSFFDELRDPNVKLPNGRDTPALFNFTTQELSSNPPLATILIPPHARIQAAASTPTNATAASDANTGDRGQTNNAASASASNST
Protocol: (§3) The GSK-3β proteins (WT or mutants) were incubated with indicated substrate in a reaction mixture (50 mM Tris-HCl, pH 7.3, 10 mM magnesium acetate, and 0.01% β-mercaptoethanol) together with 100 μM ^32P[γ-ATP] (0.5 μCi/assay) for 15 minutes. Reactions were stopped by spotting on p81 paper (Whatman) washed with phosphoric acid, and counted for radioactivity as previously described [Ilouz et al. (2006) supra]. In assays from cells overexpressing GSK-3 proteins, the activity of the endogenous GSK-3 that was determined in cells transfected with the pCMV4 vector was subtracted from the activity values obtained for WT and mutants.
Purified GSK-3β was subjected to in vitro kinase assays using pIRS-1, p9CREB, and pGS-1 substrate in the presence or absence of L803-mts (100 μM).

GSK-3 = assay: Inhibition of cellular GSK-3 in SH-SY5Y cells (Western blot); type: cell-based, human; settings: 20 or 40 μM, 5 hours, FIG. 8
Protocol: In an additional assay, human neuroblastoma SH-SY5Y cells, were treated with L803-mts (as set forth in SEQ ID NO:5) or L803F-mts (as set forth in SEQ ID NO:12) (20 or 40 μM) for 5 hours. Cells were collected and lysed in ice-cold buffer G (20 mM Tris pH 7.5, 10 mM β-glycerophosphate, 10% glycerol, 1 mM EGTA, 1 mM EDTA, 50 mM NaF, 5 mM sodium pyrophosphate, 0.5 mM orthovanadate, 1 mM benzamidine, 5 μg/ml leupeptin, 25 μg/ml aprotinin, 5 μg/ml pepstatin, and 0.5% Triton X100). Equal amounts of proteins (30 μg) were subjected to gel electrophoresis, transferred to nitrocellulose membranes, and immunoblotted with the anti-β-catenin antibody or anti-phospho-HSF-1 antibody (heat shock factor-1)(ser 303). FIG. 8 presents the β-catenin levels and phosphorylation levels of HSF-1 (ser 303) as determined by Western blot analysis using specific antibodies, with non-treated cells indicated as control (Con).

pIRS-1 = assay: In vitro kinase assay of GSK-3β mutants with substrate pIRS-1; type: biochemical; settings: mean ± SEM; WT set to 100%
Protocol: (§4) HEK-293 cells were grown in Dulbecco's Modified Eagle's Medium (DMEM), supplemented with 10% fetal calf serum (FCS), 2 mM glutamine, 100 units/ml penicillin, and 100 μg/ml streptomycin. HEK-293 cells were transiently transfected with indicated constructs, using calcium phosphate method as described [Ilouz et al. (2006) supra]. Cells were lysed in ice-cold buffer G (20 mM Tris-HCl, pH 7.5, 10 mM β-glycerophosphate, 10% glycerol, 1 mM EGTA, 1 mM EDTA, 50 mM NaF, 5 mM sodium pyrophosphate, 0.5 mM orthovanadate, 1 mM benzamidine, 10 μg/ml leupeptin, 5 μg/ml aprotinin, 1 μg/ml pepstatin, and 0.5% Triton X100). Cell extracts were centrifuged for 30 minutes at 15,000×g. Supernatants were collected, and equal amounts of proteins were boiled with SDS sample buffer and subjected to gel electrophoresis (7.5-12% polyacrylamide gel), transferred to nitrocellulose membranes, and immunoblotted with indicated antibodies. For partial purification, cells were lysed in buffer H (20 mM Tris, pH 7.3, 1 mM EGTA, 1 mM EDTA, 1 mM orthovanadate, 25 μg/ml leupeptin, 25 μg/ml aprotinin, and 25 μg/ml pepstatin A, 500 nM microcystine LR, and 0.25% Triton X100). The lysates were centrifuged at 15,000×g. The resulting supernatants were passed through DE-52 (Whatman, Maidstone, England) mini-columns that were equilibrated with buffer H. GSK-3β proteins were eluted with the same buffer containing 0.02 M NaCl. Equal amounts of proteins were used for in vitro kinase assays.
as §3
(§5) The GSK-3β mutants were partially purified by ion exchange chromatography, and their abilities to phosphorylate peptide substrates were tested in in vitro kinase assays. The substrates were: pIRS-1, p9CREB, and pGS-1, phosphorylated peptides derived from the insulin receptor substrate-1 (IRS-1), cAMP responsive element binding protein (CREB), and glycogen synthase, respectively.

[2] = test system: CREB (serine 129) and N'IRS-1 (serine 332); assay: Phosphorylation of protein substrates in HEK-293 cells expressing GSK-3β WT or F93A; type: cell-based; settings: forskolin or PMA treated, versus WT-GSK-3β, FIGS. 1E-H
Protocol: The role of Phe93 in substrate binding by employing a cellular system and protein substrates (i.e., not peptides) was further explored. To this end, the WT-GSK-3β and F93A mutant were expressed in HEK-293 cells together with GSK-3 substrates CREB or N′IRS-1 (the N-terminal region of IRS-1). Because GSK-3 requires pre-phosphorylation of its substrates, the cells were treated with forskolin to enhance CREB phosphorylation via activation of cAMP dependent kinase (PKA), or with phorbol ester (PMA) to enhance N′IRS-1 phosphorylation via activation of protein kinase C (PKC).
The phosphorylation of CREB at serine 129, and N′IRS-1 at serine 332 (both GSK-3 phosphorylation sites) was then examined.
Thus, HEK293 cells were co-transfected with WT-GSK-3β or F93A plasmids together with construct coding for CREB. Cells were treated with forskolin (10 μM, 1 hour), and cell extracts were subjected to Western blot analysis using anti-phospho CREB (Ser 129/133) antibody, as presented in FIG. 1E. Expression levels of CREB and GSK-3 proteins are indicated. Results are means of three independent experiments ±SEM.
A similar assay was conducted using N′IRS-1 cDNA construct instead of CREB, and cells were treated with PMA (100 nM, 30 minutes). Expression levels of N′IRS-1 and GSK-3β are indicated. Results are means of three independent experiments ±SEM.

p9CREB = assay: In vitro kinase assay of GSK-3β mutants with substrate p9CREB; type: biochemical; settings: mean ± SEM; WT set to 100%
Protocol: as §4, §3, §5

pGS-1 = assay: In vitro kinase assay of GSK-3β mutants with substrate pGS-1; type: biochemical; settings: mean ± SEM; WT set to 100%
Protocol: as §4, §3, §5

KEAPPAPPQS(p)P (KEAPPAPPQ[pS]P) [L803]
inhibition of substrate phosphorylation by F93A (GSK-3β F93A mutant): did not inhibit | inhibition of other GSK-3β mutants [1]: inhibited all other mutants

L803-mts: L803 in which myristic acid was attached to its N-terminal; cell permeable variant (Myristoyl-GKEAPPAPPQ[pS]P)
competition with substrates pIRS-1, p9CREB, pGS-1 (GSK-3β; purified GSK-3β, 100 μM, FIG. 2A): competes with various substrates | inhibition of substrate phosphorylation by F93A (GSK-3β F93A mutant): did not inhibit | inhibition of other GSK-3β mutants [1]: inhibit all other mutants

Lys-Glu-Ala-Pro-Pro-Ala-Pro-Pro-Gln-phosphorylated Ser-Pro-Phe [L803F]
inhibition of substrate phosphorylation at increasing concentrations, compared to L803 (GSK-3β; FIG. 7): improved activity

Myristic-Gly-Lys-Glu-Ala-Pro-Pro-Ala-Pro-Pro-Gln-phosphorylated Ser-Pro-Phe (Myristoyl-GKEAPPAPPQ[pS]PF) [L803F-mts]
phosphorylation levels of HSF-1 (serine 303) (GSK-3): reduced the phosphorylation levels | β-catenin levels (GSK-3): elevation in β-catenin levels

B1: F93A: GSK-3β mutant, F93 replaced by alanine (protein)
chain: MSGRPRTTSFAESCKPVQQPSAFGSMKVSRDKDGSKVTTVVATPGQGPDRPQEVSYTDTKVIGNGSFGVVYQAKLCDSGELVAIKKVLQDKRAKNRELQIMRKLDHCNIVRLRYFFYSSGEKKDEVYLNLVLDYVPETVYRVARHYSRAKQTLPVIYVKLYMYQLFRSLAYIHSFGICHRDIKPQNLLLDPDTAVLKLCDFGSAKQLVRGEPNVSYICSRYYRAPELIFGATDYTSSIDVWSAGCVLAELLLGQPIFPGDSGVDQLVEIIKVLGTPTREQIREMNPNYTEFKFPQIKAHPWTKDSSGTGHFTSGVRVFRPRTPPEAIALCSRLLEYTPTARLTPLEACAHSFFDELRDPNVKLPNGRDTPALFNFTTQELSSNPPLATILIPPHARIQAAASTPTNATAASDANTGDRGQTNNAASASASNST
modifications: GSK-3 beta, F93A mutant
notes: GSK-3β mutant, F93 replaced by alanine
Substrate phosphorylation (% of WT GSK-3β), pIRS-1 (pIRS-1): 42 ± 13 % of WTGSK-3β | phosphorylation of CREB and N'IRS-1 in cells [2]: did not enhance the phosphorylation | Substrate phosphorylation (% of WT GSK-3β), p9CREB (p9CREB): 46 ± 2 % of WTGSK-3β | Substrate phosphorylation (% of WT GSK-3β), pGS-1 (pGS-1): 13 ± 7 % of WTGSK-3β

B2: R92A: GSK-3β mutant, R92 replaced by alanine (protein)
chain: B1 chain with R92A, A93F
modifications: GSK-3 beta, R92A mutant
notes: GSK-3β mutant, R92 replaced by alanine
Substrate phosphorylation (% of WT GSK-3β), pIRS-1 (pIRS-1): 60 ± 3 % of WTGSK-3β | Substrate phosphorylation (% of WT GSK-3β), p9CREB (p9CREB): 49 ± 19 % of WTGSK-3β | Substrate phosphorylation (% of WT GSK-3β), pGS-1 (pGS-1): 41 ± 14 % of WTGSK-3β

B3: K91A: GSK-3β mutant, K91 replaced by alanine (protein)
chain: B1 chain with K91A, A93F
modifications: GSK-3 beta, K91A mutant
notes: GSK-3β mutant, K91 replaced by alanine
Substrate phosphorylation (% of WT GSK-3β), pIRS-1 (pIRS-1): 140 ± 18 % of WTGSK-3β | Substrate phosphorylation (% of WT GSK-3β), p9CREB (p9CREB): 161 ± 5 % of WTGSK-3β | Substrate phosphorylation (% of WT GSK-3β), pGS-1 (pGS-1): 119 ± 5 % of WTGSK-3β

B4: K94A: GSK-3β mutant, K94 replaced by alanine (protein)
chain: B1 chain with A93F, K94A
modifications: GSK-3 beta, K94A mutant
notes: GSK-3β mutant, K94 replaced by alanine
Substrate phosphorylation (% of WT GSK-3β), pIRS-1 (pIRS-1): 52 ± 19 % of WTGSK-3β | Substrate phosphorylation (% of WT GSK-3β), p9CREB (p9CREB): 71 ± 4 % of WTGSK-3β | Substrate phosphorylation (% of WT GSK-3β), pGS-1 (pGS-1): 19 ± 14 % of WTGSK-3β

B5: D90A: GSK-3β mutant, D90 replaced by alanine (protein)
chain: B1 chain with D90A, A93F
modifications: GSK-3 beta, D90A mutant
notes: GSK-3β mutant, D90 replaced by alanine
Substrate phosphorylation (% of WT GSK-3β), pIRS-1 (pIRS-1): 88 ± 15 % of WTGSK-3β | Substrate phosphorylation (% of WT GSK-3β), p9CREB (p9CREB): 92 ± 21 % of WTGSK-3β | Substrate phosphorylation (% of WT GSK-3β), pGS-1 (pGS-1): 83 ± 2 % of WTGSK-3β
